Earlier results as cited in paper PMC4689310.

How the values were obtained:
[1] = molecular target: H3 peptide 1-28 (Homo sapiens) (UniProt P68431)
[2] = molecular target: H3K9me3 peptide 1-28 (Homo sapiens) (UniProt P68431)
[3] = molecular target: H3K18ac peptide 1-28 (Homo sapiens) (UniProt P68431)
[4] = molecular target: H4K16ac peptide (Homo sapiens) (UniProt P62805); test: ITC
[5] = molecular target: H3 peptide 1-18 (Homo sapiens) (UniProt P68431)
[6] = molecular target: H4K20me1 peptide (Homo sapiens) (UniProt P62805)
[7] = molecular target: H3 K4un/K23ac peptide (Homo sapiens) (UniProt P68431)
[8] = molecular target: H3 unmodified K4 peptide (Homo sapiens) (UniProt P68431)
[9] = molecular target: H3K23ac peptide 13-32 (Homo sapiens) (UniProt P68431)

Sequence of DPF3b tandem PHD fingers (Q92784 259-366): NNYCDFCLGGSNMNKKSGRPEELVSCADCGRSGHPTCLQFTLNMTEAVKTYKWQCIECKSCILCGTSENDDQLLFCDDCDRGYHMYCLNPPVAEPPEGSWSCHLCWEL

Substance: TRIM33 PHD-Bromo (from UniProt Q9UPN9)
- Kd [1]: 0.46 µM
- Kd [2]: 0.2 µM
- Kd [3]: 0.21 µM

Substance: TAF1 double bromodomain (from UniProt P21675)
- Kd [4]: 39 µM

Substance: DPF3b tandem PHD fingers (from UniProt Q92784)
- Kd [5]: 2.3 µM

Substance: MSL3 chromodomain (from UniProt Q8N5Y2)
- Kd [6]: 10 µM

Substance: TRIM24 PHD-Bromo (from UniProt O15164)
- Kd [7]: 0.096 µM
- Kd [8]: 2.3 µM
- Kd [9]: 8.8 µM
